In the supplement of paper PMC10567573:

B1: MYOZ1 (parent)
chain: FSDSSMDHFQKFLPTVGGQLGTAG

Variants of: B1
Test: protein stability index of a GFP-peptide fusion (GPS, HEK-293T) (PSI 1-6); higher = more stable
Conditions: c terminus: a fixed tail appended
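Note: lentivirally expressed fusions sorted by FACS into six bins by GFP to DsRed ratio, PSI derived from sequencing read proportions per bin multiplied by bin number.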

In order of falling protein stability index:
1. FSDSSMDHEQKFLPTVGGQLGTAG [F9E]  4.4
2. FSDSSMDHPQKFLPTVGGQLGTAG [F9P]  4.38
3. FSDSSMDHNQKFLPTVGGQLGTAG [F9N]  3.84
4. FSDSSMDHFQEFLPTVGGQLGTAG [K11E]  3.51
5. FSDSSMDHMQKFLPTVGGQLGTAG [F9M]  3.37
6. FSDSSMDHFQDFLPTVGGQLGTAG [K11D]  3.32
7. FSDSSMDHFPKFLPTVGGQLGTAG [Q10P]  3.23
8. FSDSSMDHFQGFLPTVGGQLGTAG [K11G]  3.21
9. FSDSSMDHFDKFLPTVGGQLGTAG [Q10D]  3.15
10. FSDSLMDHFQKFLPTVGGQLGTAG [S5L]  3.12
11. FSDSNMDHFQKFLPTVGGQLGTAG [S5N]  3.11
12. FSDSSMDHKQKFLPTVGGQLGTAG [F9K]  3.09
13. FSDSAMDHFQKFLPTVGGQLGTAG [S5A]  3.02
14. FSDSTMDHFQKFLPTVGGQLGTAG [S5T]  2.98
15. FSDSSMDHFIKFLPTVGGQLGTAG [Q10I]  2.91
16. FSDSEMDHFQKFLPTVGGQLGTAG [S5E]  2.91
17. FSDSSMDHFQQFLPTVGGQLGTAG [K11Q]  2.66
18. FSDSSMRHFQKFLPTVGGQLGTAG [D7R]  2.6
19. FSDSDMDHFQKFLPTVGGQLGTAG [S5D]  2.58
20. FSDSSMDQFQKFLPTVGGQLGTAG [H8Q]  2.58
21. FSDSSMDHFGKFLPTVGGQLGTAG [Q10G]  2.57
22. FSDSSMDHHQKFLPTVGGQLGTAG [F9H]  2.57
23. FSDSSMDHFQNFLPTVGGQLGTAG [K11N]  2.56
24. FSDSSMSHFQKFLPTVGGQLGTAG [D7S]  2.56
25. FSDSSMDTFQKFLPTVGGQLGTAG [H8T]  2.51
26. FSDSSMDDFQKFLPTVGGQLGTAG [H8D]  2.49
27. FSDSSMDNFQKFLPTVGGQLGTAG [H8N]  2.48
28. FSDSSMDHTQKFLPTVGGQLGTAG [F9T]  2.48
29. FSDSSMDHFQPFLPTVGGQLGTAG [K11P]  2.46
30. FSDSSMDHFQTFLPTVGGQLGTAG [K11T]  2.45
31. FSDSSMDHFNKFLPTVGGQLGTAG [Q10N]  2.42
32. FSDSSMDHFQHFLPTVGGQLGTAG [K11H]  2.38
33. FSDSSMPHFQKFLPTVGGQLGTAG [D7P]  2.38
34. FSDSWMDHFQKFLPTVGGQLGTAG [S5W]  2.38
35. FSDSSMDHFQSFLPTVGGQLGTAG [K11S]  2.37
36. FSDSSMDPFQKFLPTVGGQLGTAG [H8P]  2.36
37. FSDSSMDEFQKFLPTVGGQLGTAG [H8E]  2.34
38. FSDSSMDHFAKFLPTVGGQLGTAG [Q10A]  2.33
39. FSDSSMDHFHKFLPTVGGQLGTAG [Q10H]  2.31
40. FSDSSMDHFFKFLPTVGGQLGTAG [Q10F]  2.3
41. FSDSSMIHFQKFLPTVGGQLGTAG [D7I]  2.3
42. FSDSHMDHFQKFLPTVGGQLGTAG [S5H]  2.25
43. FSDSFMDHFQKFLPTVGGQLGTAG [S5F]  2.22
44. FSDSSMDWFQKFLPTVGGQLGTAG [H8W]  2.22
45. FSDSSMDIFQKFLPTVGGQLGTAG [H8I]  2.21
46. FSDSQMDHFQKFLPTVGGQLGTAG [S5Q]  2.19
47. FSDSCMDHFQKFLPTVGGQLGTAG [S5C]  2.19
48. FSDSSMDHLQKFLPTVGGQLGTAG [F9L]  2.16
49. FSDSSMDHFTKFLPTVGGQLGTAG [Q10T]  2.15
50. FSDSSMDHFQYFLPTVGGQLGTAG [K11Y]  2.15
51. FSDSSMTHFQKFLPTVGGQLGTAG [D7T]  2.15
52. FSDSSMVHFQKFLPTVGGQLGTAG [D7V]  2.15
53. FSDSSMDKFQKFLPTVGGQLGTAG [H8K]  2.15
54. FSDSSMDHFKKFLPTVGGQLGTAG [Q10K]  2.14
55. FSDSSMDHFQRFLPTVGGQLGTAG [K11R]  2.12
56. FSDSSMDHFQIFLPTVGGQLGTAG [K11I]  2.12
57. FSDSPMDHFQKFLPTVGGQLGTAG [S5P]  2.08
58. FSDSSMDYFQKFLPTVGGQLGTAG [H8Y]  2.08
59. FSDSSMDHFSKFLPTVGGQLGTAG [Q10S]  2.07
60. FSDSSMDHFQFFLPTVGGQLGTAG [K11F]  2.07
61. FSDSKMDHFQKFLPTVGGQLGTAG [S5K]  2.07
62. FSDSSMDGFQKFLPTVGGQLGTAG [H8G]  2.07
63. FSDSSMDHFCKFLPTVGGQLGTAG [Q10C]  2.06
64. FSDSSMDHFMKFLPTVGGQLGTAG [Q10M]  2.02
65. FSDSSMEHFQKFLPTVGGQLGTAG [D7E]  2.02
66. FSDSSMQHFQKFLPTVGGQLGTAG [D7Q]  2.02
67. FSDSSMDHFEKFLPTVGGQLGTAG [Q10E]  1.95
68. FSDSSMCHFQKFLPTVGGQLGTAG [D7C]  1.9
69. FSDSSMDHWQKFLPTVGGQLGTAG [F9W]  1.89
70. FSDSGMDHFQKFLPTVGGQLGTAG [S5G]  1.88
71. FSDSSMDAFQKFLPTVGGQLGTAG [H8A]  1.84
72. FSDSSMHHFQKFLPTVGGQLGTAG [D7H]  1.82
73. FSDSMMDHFQKFLPTVGGQLGTAG [S5M]  1.82
74. FSDSSMDHFQCFLPTVGGQLGTAG [K11C]  1.8
75. FSDSSMKHFQKFLPTVGGQLGTAG [D7K]  1.8
76. FSDSSMDHFQAFLPTVGGQLGTAG [K11A]  1.79
77. FSDSSMDHFVKFLPTVGGQLGTAG [Q10V]  1.77
78. FSDSSMDVFQKFLPTVGGQLGTAG [H8V]  1.76
79. FSDSSMDCFQKFLPTVGGQLGTAG [H8C]  1.72
80. FSDSSMDHFQLFLPTVGGQLGTAG [K11L]  1.67
81. FSDSSMDRFQKFLPTVGGQLGTAG [H8R]  1.61
82. FSDSSMLHFQKFLPTVGGQLGTAG [D7L]  1.55
83. FSDSSMDSFQKFLPTVGGQLGTAG [H8S]  1.53
84. FSDSSMDHFYKFLPTVGGQLGTAG [Q10Y]  1.47
85. FSDSSMGHFQKFLPTVGGQLGTAG [D7G]  1.44
86. FSDSSMAHFQKFLPTVGGQLGTAG [D7A]  1.38
87. FSDSSMMHFQKFLPTVGGQLGTAG [D7M]  1.38
88. FSDSSMDFFQKFLPTVGGQLGTAG [H8F]  1.38
89. FSDSSMDLFQKFLPTVGGQLGTAG [H8L]  1.35
90. FSDSSMDHFQMFLPTVGGQLGTAG [K11M]  1.34
91. FSDSSMDHFLKFLPTVGGQLGTAG [Q10L]  1.3
92. FSDSSMDHFRKFLPTVGGQLGTAG [Q10R]  1.13
93. FSDSRMDHFQKFLPTVGGQLGTAG [S5R]  1.05
94. FSDSSMDHFQWFLPTVGGQLGTAG [K11W]  1.02
